The values that follow are results of earlier work, collected in PMC2688729.

The data set deals with thrombomodulin (Homo sapiens) (UniProt P07204).

thrombin (from UniProt P00734): the equilibrium dissociation constant (Kd) – broadly, the constant that tells how readily two partners part at equilibrium – is under 1 nM.
